Assay results: US20150337031A1 (CELYAD S A, published 2015)

Columns and labels:
[1] = biological target: T1, Mutated peptide on Aa L (8th position); assay: ELISA on coated mutant peptide, relative quantification against a standard curve of the wild-type peptide
T1 peptide: GNPNLLPAAHPSL
Experimental: (§1) ELISA was performed to map the epitope of the test antibody. The peptides were coated in 96-well microtiter plates at 4° C. for 16 h. The plates were then blocked with 5% MPBS at 37° C. for 2 h. After washed with PBS-T, 100 μl target/control antibody (0.5 μg/ml) was added and incubated at 37° C. for 2 h. The plates were washed with PBS-T and incubated with 100 μl of 0.1 μg/ml goat anti-mouse IgG (H+L) at 37° C. for 1 h. The plates were washed with PBS-T and incubated with rabbit anti goat IgG (H+L) [HRP] at 37° C. for 1 h. After washing the plate with PBS-T, the color was developed with 100 μl TMB substrate for 10 minutes. The reaction was stopped by adding 100 μl of 1 M HCl and the absorbance was measured at 450 nm using a spectrometer. […] A non-coated well was set as blank control and the peptide library incubated with the detection antibodies only was set as the negative control.
(§2) In addition to the alanine scanning, a relative quantification of binding was performed. Each of the mutated peptides was assayed in direct ELISA according to the procedures described above and compared to a standard curve performed with the wild-type peptide. Relative binding quantification was then performed as described previously. […] Therefore, considering the combination of the data obtained in FIGS. 7 and 8 an epitope target of the anti-MEF2C mAb is the following amino acid sequence: […]

[2] = biological target: T2, Mutated peptide on Aa L (6th position); assay: as above
T2 peptide: GNPNLAPLAHPSL
Experimental: as §1, §2

[3] = biological target: T3, alanine scanning mutant of the MEF2C peptide of SEQ ID NO: 2, proline at position 3 replaced by alanine (human); assay: indirect ELISA on coated alanine mutant peptides (FIG. 7)
T3 construct: Member of the alanine scanning peptide library; also called mutation at peptide position 3
T3 peptide: GNANLLPLAHPSL
Experimental: as §1
(§3) Thirteen mutant peptides were numbered in numerical order and their binding activity with target/control antibodies were determined by indirect ELISA. The non-specific binding between the peptide, the target antibody and rabbit anti-goat IgG [HRP] was determined. The non-specific binding between the peptide, goat anti-mouse IgG and rabbit anti-goat IgG [HRP] was determined as well.

[4] = biological target: T4, alanine scanning mutant of the MEF2C peptide of SEQ ID NO: 2, asparagine at position 2 replaced by alanine (human); assay: as above
T4 construct: Member of the alanine scanning peptide library; also called mutation at peptide position 2
T4 peptide: GAPNLLPLAHPSL
Experimental: as §1, §3

[5] = biological target: T5, alanine scanning mutant of the MEF2C peptide of SEQ ID NO: 2, leucine at position 5 replaced by alanine (human); assay: as above
T5 construct: Member of the alanine scanning peptide library; also called mutation at peptide position 5
T5 peptide: GNPNALPLAHPSL
Experimental: as §1, §3

[6] = biological target: T6, alanine scanning mutant of the MEF2C peptide of SEQ ID NO: 2, asparagine at position 4 replaced by alanine (human); assay: as above
T6 construct: Member of the alanine scanning peptide library; also called mutation at peptide position 4
T6 peptide: GNPALLPLAHPSL
Experimental: as §1, §3

[7] = biological target: T7, 13 amino acid sequence from human MEF2C (SEQ ID NO: 2), GNPNLLPLAHPSL (human); assay: SPR, BIAcore T200, calculated as the inverse of Kd
T7 construct: Synthetic peptide (GenScript); Coated on the plate in ELISA, injected over the immobilised antibody in Biacore; also called wild-type peptide; antigen peptide
T7 peptide: GNPNLLPLAHPSL
Experimental: (§4) Affinity of the antibody for the peptide was measured by using BIAcoreT200. After covalent coupling of the antibody onto the Series S Sensor Chip CM5, different concentrations (0.078, 0.781, 1.563, 3.125 and 6.250 μM) of peptide were injected serially over the antibody and blank flow cell at a flow rate of 30 μl/min. Association and dissociation phases were monitored for 30 and 150 seconds, respectively. Peptide with the concentration of 6.250 μM was set as repetition. The antibody surface was regenerated with 10 mM Glycine-HCl, pH2.0, 30 s injections 1 time.
(§5) About 10000 RU of antibody was immobilized on the sensor chip via primary amine groups. Binding data was processed, double referenced with response from blank injections, and fit to a 1:1 interaction model using the BIAcore T200 evaluation software.

[8] = biological target: T3, alanine scanning mutant of the MEF2C …; assay: direct ELISA, relative quantification against a wild-type peptide standard curve (FIG. 8)
Experimental: as §1, §2

[9] = biological target: T4, alanine scanning mutant of the MEF2C …; assay: as above
Experimental: as §1, §2

[10] = biological target: T8, alanine scanning mutant of the MEF2C peptide of SEQ ID NO: 2, glycine at position 1 replaced by alanine (human); assay: as above
T8 construct: Member of the alanine scanning peptide library synthesised by GenScript; also called mutation of the first residue; G1
T8 peptide: ANPNLLPLAHPSL
Experimental: as §1, §2

[11] = biological target: T5, alanine scanning mutant of the MEF2C …; assay: as above
Experimental: as §1, §2

[12] = biological target: T9, alanine scanning mutant of the MEF2C peptide of SEQ ID NO: 2, proline at position 7 replaced by alanine (human); assay: as above
T9 construct: Member of the alanine scanning peptide library; also called mutation of the seventh residue; P7
T9 peptide: GNPNLLALAHPSL
Experimental: as §1, §2

[13] = biological target: T6, alanine scanning mutant of the MEF2C …; assay: as above
Experimental: as §1, §2

[14] = biological target: T7, 13 amino acid sequence from human MEF2C …; assay: SPR, BIAcore T200, antibody coupled to CM5 chip, peptide injected, 1:1 model
Experimental: as §4, §5

[15] = biological target: T10, Mutated peptide on Aa P (11th position); assay: indirect ELISA on coated peptide, antibody at 0.5 µg/ml, OD450
T10 peptide: GNPNLLPLAHASL
Experimental: as §1, §3

[16] = biological target: T11, Mutated peptide on Aa L (13th position); assay: as above
T11 peptide: GNPNLLPLAHPSA
Experimental: as §1, §3

[17] = biological target: T12, Mutated peptide on Aa H (10th position); assay: as above
T12 peptide: GNPNLLPLAAPSL
Experimental: as §1, §3

binding result [1]: binds | binding result [2]: binds | binding result [3]: no binding (tested: 0.5 µg/ml antibody) | binding result [4]: no binding (tested: 0.5 µg/ml antibody) | binding result [5]: no binding (tested: 0.5 µg/ml antibody) | binding result [6]: no binding (tested: 0.5 µg/ml antibody) | Ka [7]: 6.37e+06 M⁻¹ | decrease of the binding relative to the wild-type peptide [8]: > 99% | decrease of the binding relative to the wild-type peptide [9]: > 99% | loss of binding relative to the wild-type peptide [10]: 92.9% | decrease of the binding relative to the wild-type peptide [11]: > 99% | loss of binding relative to the wild-type peptide [12]: 96.4% | decrease of the binding relative to the wild-type peptide [13]: > 99% | Kd [14]: 157 nM | koff [14]: 0.00367 s⁻¹ | kon [14]: 23400 M⁻¹ s⁻¹ | binding result [15]: binds | binding result [16]: binds | binding result [17]: binds
B1: anti-MEF2C monoclonal antibody produced by the hybridoma cell line deposited with BCCM/LMBP under Accession No. LMBP 9949CB (antibody, V domains shown)
VH: EVQLQQSGPELVKPGASVKISCKASAYSFTGYFMNWVKQSHGKSLEWIGRINPYNGNTFYNQNFKGKATLTVDRSSSTAHMQILSLTSEDSTVYYCGREGATGAMDYWGQGTSVTVLP
VL: DVVMTQTPLSLPVSLGDQASISCRSSQSLVHSNGDTYLHWYLQMPGQSPRLLIYKVSNRFSGVPDRFSGSGSGTDFTLKISRVEAEDLGVYFCSQSTHVPPTFGGGTKLEIK
notes: IgG from a mouse hybridoma (detected with anti-mouse IgG); also called anti-MEF2C mAb; α MEF2C
